Here are results for 32 molecules from patent publication US20210388087A1 (Chugai, published 2021).

B1: CE115HA000 E61A (antibody, human IgG1, kappa, L234A L235A, N297A, name in Kabat numbering)
heavy: QVQLVESGGGVVQPGRSLRLSCAASGFTFSNAWMHWVRQAPGKGLEWVAQIKAKSNNYATYYAASVKGRFTISRDDSKNSLYLQMNSLKTEDTAVYYCRYVHYGAYYGVDAWGQGTTVTVSSASTKGPSVFPLAPSSKSTSGGTAALGCLVKDYFPEPVTVSWNSGALTSGVHTFPAVLQSSGLYSLSSVVTVPSSSLGTQTYICNVNHKPSNTKVDKKVEPKSCDKTHTCPPCPAPEAAGGPSVFLFPPKPKDTLMISRTPEVTCVVVDVSHEDPEVKFNWYVDGVEVHNAKTKPREEQYASTYRVVSVLTVLHQDWLNGKEYKCKVSNKALPAPIEKTISKAKGQPREPQVYTLPPSRCELTKNQVSLSCAVKGFYPSDIAVEWESNGQPENNYKTTPPVLDSDGSFFLVSKLTVDKSRWQQGNVFSCSVMHEALHNHYTQKSLSLSPDYKDDDDK
chain: EPKSSDKTHTCPPCPAPELLGGPSVFLFPPKPKDTLMISRTPEVTCVVVDVSHEDPEVKFNWYVDGVEVHNAKTKPREEQYNSTYRVVSVLTVLHQDWLNGKEYKCKVSNKALPAPIEKTISKAKGQPREPQVCTLPPSRDELTKNQVSLWCLVKGFYPSDIAVEWESNGQPENNYKTTPPVLDSDGSFFLYSKLTVDKSRWQQGNVFSCSVMHEALHNRYTQKSLSLSP
light: DIVMTQSPLSLPVTPGEPASISCRSSQSLVHSNRNTYLHWYQQKPGQAPRLLIYKVSNRFSGVPDRFSGSGSGTDFTLKISRVEAEDVGVYYCGQGTQVPYTFGQGTKLEIKRTVAAPSVFIFPPSDEQLKSGTASVVCLLNNFYPREAKVQWKVDNALQSGNSQESVTEQDSKDSTYSLSSTLTLSKADYEKHKVYACEVTHQGLSSPVTKSFNRGEC
notes: one-arm antibody
B2: CE115HA000 H35L (antibody, human IgG1, kappa, L234A L235A, N297A, name in Kabat numbering)
heavy: B1 heavy with H35L, A64E
chain: B1 chain
light: B1 light
notes: one-arm antibody
B3: CE115HA000 G98K (antibody, human IgG1, kappa, L234A L235A, N297A, name in Kabat numbering)
heavy: B1 heavy with A64E, G104K
chain: B1 chain
light: B1 light
notes: one-arm antibody
B4: CE115HA000 H35E (antibody, human IgG1, kappa, L234A L235A, N297A, name in Kabat numbering)
heavy: B1 heavy with H35E, A64E
chain: B1 chain
light: B1 light
notes: one-arm antibody
B5: CE115HA000 H35N (antibody, human IgG1, kappa, L234A L235A, N297A, name in Kabat numbering)
heavy: B1 heavy with H35N, A64E
chain: B1 chain
light: B1 light
notes: one-arm antibody
B6: CE115HA000 H35D (antibody, human IgG1, kappa, L234A L235A, N297A, name in Kabat numbering)
heavy: B1 heavy with H35D, A64E
chain: B1 chain
light: B1 light
notes: one-arm antibody
B7: CE115HA000 G98Y (antibody, human IgG1, kappa, L234A L235A, N297A, name in Kabat numbering)
heavy: B1 heavy with A64E, G104Y
chain: B1 chain
light: B1 light
notes: one-arm antibody
B8: CE115HA000 E61Q (antibody, human IgG1, kappa, L234A L235A, N297A, name in Kabat numbering)
heavy: B1 heavy with A64Q
chain: B1 chain
light: B1 light
notes: one-arm antibody
B9: CE115HA000 G98A (antibody, human IgG1, kappa, L234A L235A, N297A, name in Kabat numbering)
heavy: B1 heavy with A64E, G104A
chain: B1 chain
light: B1 light
notes: one-arm antibody
B10: CE115HA000 G98P (antibody, human IgG1, kappa, L234A L235A, N297A, name in Kabat numbering)
heavy: B1 heavy with A64E, G104P
chain: B1 chain
light: B1 light
notes: one-arm antibody
B11: CE115HA000 E61D (antibody, human IgG1, kappa, L234A L235A, N297A, name in Kabat numbering)
heavy: B1 heavy with A64D
chain: B1 chain
light: B1 light
notes: one-arm antibody
B12: CE115HA000 G98Q (antibody, human IgG1, kappa, L234A L235A, N297A, name in Kabat numbering)
heavy: B1 heavy with A64E, G104Q
chain: B1 chain
light: B1 light
notes: one-arm antibody
B13: CE115HA000 H35F (antibody, human IgG1, kappa, L234A L235A, N297A, name in Kabat numbering)
heavy: B1 heavy with H35F, A64E
chain: B1 chain
light: B1 light
notes: one-arm antibody
B14: CE115HA000 G65D (antibody, human IgG1, kappa, L234A L235A, N297A, name in Kabat numbering)
heavy: B1 heavy with A64E, G68D
chain: B1 chain
light: B1 light
notes: one-arm antibody
B15: CE115HA000 H35M (antibody, human IgG1, kappa, L234A L235A, N297A, name in Kabat numbering)
heavy: B1 heavy with H35M, A64E
chain: B1 chain
light: B1 light
notes: one-arm antibody
B16: CE115HA000 H35K (antibody, human IgG1, kappa, L234A L235A, N297A, name in Kabat numbering)
heavy: B1 heavy with H35K, A64E
chain: B1 chain
light: B1 light
notes: one-arm antibody
B17: CE115HA000 G100bS (antibody, human IgG1, kappa, L234A L235A, N297A, name in Kabat numbering)
heavy: B1 heavy with A64E, G108S
chain: B1 chain
light: B1 light
notes: one-arm antibody
B18: CE115HA000 H35G (antibody, human IgG1, kappa, L234A L235A, N297A, name in Kabat numbering)
heavy: B1 heavy with H35G, A64E
chain: B1 chain
light: B1 light
notes: one-arm antibody
B19: CE115HA000 G98S (antibody, human IgG1, kappa, L234A L235A, N297A, name in Kabat numbering)
heavy: B1 heavy with A64E, G104S
chain: B1 chain
light: B1 light
notes: one-arm antibody
B20: CE115HA000 F29V (antibody, human IgG1, kappa, L234A L235A, N297A, name in Kabat numbering)
heavy: B1 heavy with F29V, A64E
chain: B1 chain
light: B1 light
notes: one-arm antibody
B21: CE115HA000 G100bY (antibody, human IgG1, kappa, L234A L235A, N297A, name in Kabat numbering)
heavy: B1 heavy with A64E, G108Y
chain: B1 chain
light: B1 light
notes: one-arm antibody
B22: CE115HA000 G100bF (antibody, human IgG1, kappa, L234A L235A, N297A, name in Kabat numbering)
heavy: B1 heavy with A64E, G108F
chain: B1 chain
light: B1 light
notes: one-arm antibody
B23: CE115HA000 E61P (antibody, human IgG1, kappa, L234A L235A, N297A, name in Kabat numbering)
heavy: B1 heavy with A64P
chain: B1 chain
light: B1 light
notes: one-arm antibody
B24: CE115HA000 G98T (antibody, human IgG1, kappa, L234A L235A, N297A, name in Kabat numbering)
heavy: B1 heavy with A64E, G104T
chain: B1 chain
light: B1 light
notes: one-arm antibody
B25: CE115HA000 G100bL (antibody, human IgG1, kappa, L234A L235A, N297A, name in Kabat numbering)
heavy: B1 heavy with A64E, G108L
chain: B1 chain
light: B1 light
notes: one-arm antibody
B26: CE115HA000 G100bE (antibody, human IgG1, kappa, L234A L235A, N297A, name in Kabat numbering)
heavy: B1 heavy with A64E, G108E
chain: B1 chain
light: B1 light
notes: one-arm antibody
B27: CE115HA000 G98R (antibody, human IgG1, kappa, L234A L235A, N297A, name in Kabat numbering)
heavy: B1 heavy with A64E, G104R
chain: B1 chain
light: B1 light
notes: one-arm antibody
B28: CE115HA000 H35I (antibody, human IgG1, kappa, L234A L235A, N297A, name in Kabat numbering)
heavy: B1 heavy with H35I, A64E
chain: B1 chain
light: B1 light
notes: one-arm antibody
B29: CE115HA000 G100bD (antibody, human IgG1, kappa, L234A L235A, N297A, name in Kabat numbering)
heavy: B1 heavy with A64E, G108D
chain: B1 chain
light: B1 light
notes: one-arm antibody
B30: CE115HA000 G98H (antibody, human IgG1, kappa, L234A L235A, N297A, name in Kabat numbering)
heavy: B1 heavy with A64E, G104H
chain: B1 chain
light: B1 light
notes: one-arm antibody
B31: CE115HA000 G98D (antibody, human IgG1, kappa, L234A L235A, N297A, name in Kabat numbering)
heavy: B1 heavy with A64E, G104D
chain: B1 chain
light: B1 light
notes: one-arm antibody
B32: CE115HA000 G65E (antibody, human IgG1, kappa, L234A L235A, N297A, name in Kabat numbering)
heavy: B1 heavy with A64E, G68E
chain: B1 chain
light: B1 light
notes: one-arm antibody

Changes are numbered by the printed parent chain.

T1 sequence (P07766 23-126): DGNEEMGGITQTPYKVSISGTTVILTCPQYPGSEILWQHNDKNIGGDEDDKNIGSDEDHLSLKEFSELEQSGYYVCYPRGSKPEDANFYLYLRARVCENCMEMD

The experiment addresses T1, CD3 epsilon homodimer protein (UniProt P07766 23-126).
T1 construct: also called CD3 (CD3 epsilon)
The experiment in a line: SPR, CD3 epsilon homodimer on chip, one-arm antibody as analyte.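 Note: surface plasmon resonance at 25 °C with CD3 epsilon homodimer amine-coupled to a CM4 sensor chip, antibody injected as analyte, HBS-EP+ as running buffer.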 On the technique in general: In SPR one partner is held on a chip, and binding of the other changes the refractive index at the surface.
Regarding B1, the “KD ratio (KD of CE115HA000/KD of altered form)” value (“KD ratio” for short) was determined as 0.94.
Next, B2: 4.8; B3: 4.85.
Next, B4: 70.3; B5: 2.88; B6: 69.
Regarding B7, the “KD ratio” value amounted to 2.75.
For the molecule B8, the “KD ratio” value is 0.65.
For B9, the “KD ratio” value came to 0.98.
For the molecule B10, the “KD ratio” value was determined as 0.88.
The result for B11 reads 0.9.
Next, B12: 1.04; B13: 53.6.
On to B14, for which the “KD ratio” value was found to be 0.61.
For the molecule B15, the “KD ratio” value turned out to be 3.98.
Next, B16: 14.4; B17: 1.25; B18: 45.8.
B19: the “KD ratio” value was 0.98.
The result for B20 reads 2.94; that for B21, 51.4.
For B22, the “KD ratio” value worked out at 4.37.
Next, B23: 0.82; B24: 0.93.
The result for B25 reads 5.84.
Next, B26: 7.29; B27: 4.69.
Take B28: the “KD ratio” value is 7.23.
For the molecule B29, the “KD ratio” value worked out at 6.25.
With B30, the “KD ratio” value stood at 1.14.
Next, B31: 2.36; B32: 0.61.
